{
  "source": "patent US20090136500A1",
  "binders": {"B1": {"name": "murine monoclonal antibody 33B8 (antibody, V domains shown)", "VH": "QIQLVQSGPELKKPGKTVTISCKASGYTFTNYGMNWVKQAPGKGLKWMGWINTYTGEPTYTDDFKGRFAFSLDTSASTAYLQISNLKNEDTATYFCAKDVSGFVFDYWGQGTTVTVSS", "VL": "DIVMTQSPSSLAVSVGEKVTMSCKSSQSLLNIIKQKNCLAWYQQKPGQSPKLLIYWASTRESGVPDRFTGSGSGTDFTLTISSVKAEDLAVYYCQQYYSYPYTFGGGTKLEIK"}},
  "key": {"[1]": {"molecular_target": "PAI-1 (antigen of Example 11, species not stated)", "sequence (P05121 24-402)": "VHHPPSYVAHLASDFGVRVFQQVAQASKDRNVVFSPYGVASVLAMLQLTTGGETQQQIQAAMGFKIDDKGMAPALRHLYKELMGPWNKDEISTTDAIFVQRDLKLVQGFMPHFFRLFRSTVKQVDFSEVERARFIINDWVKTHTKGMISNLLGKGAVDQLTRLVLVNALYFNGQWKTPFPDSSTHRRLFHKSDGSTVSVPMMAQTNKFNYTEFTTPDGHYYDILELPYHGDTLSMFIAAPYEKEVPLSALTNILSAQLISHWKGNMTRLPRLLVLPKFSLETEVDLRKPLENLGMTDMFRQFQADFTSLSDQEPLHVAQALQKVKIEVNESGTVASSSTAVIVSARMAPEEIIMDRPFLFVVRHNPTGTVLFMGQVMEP", "test": "SPR-type biosensor, 25 C, global 1:1 fit (format for mP-1 not given)"}, "[2]": {"molecular_target": "PAI-1 (immobilized antigen of the P-ELISA of Figure 13, species not stated)", "sequence (P05121 24-402)": "as above", "test": "P-ELISA on immobilized biotin-labeled PAI-1 (species not stated), antibody with EDTA, A450"}},
  "data": [
    {"binder": "B1", "values": [
      {"measurement": "Kd", "setting": "[1]", "value": 8.01, "unit": "nM"},
      {"measurement": "koff", "setting": "[1]", "value": 0.00314, "unit": "s⁻¹"},
      {"measurement": "kon", "setting": "[1]", "value": 393000, "unit": "M⁻¹ s⁻¹"},
      {"measurement": "EC50 (read off the curve)", "setting": "[2]", "value": 0.1, "unit": "µg/mL"}
    ]}
  ]
}
